Positions count from the first letter of the chain named. In names and notes the source's numbering stands. Each block holds one molecule with its values, some of them ahead of it. Bridge positions count the residues as written; N and C are the ends.
Assays:
[1] = target: human eIF4E1a protein (human) (UniProt P06730); experiment: differential scanning fluorimetry (thermal shift); non-reducing: 50 mM HEPES-KOH pH 7.2, 100 mM KCl, no TCEP; 5 µM eIF4E1a with 0-50 µM h4E-T(1-68) variant incubated without TCEP (up to 48 h, 4 or 20 °C), or SEC-purified dimers at 1:1; SYPRO Orange; shift of the Tm of eIF4E1a
Sequence of human eIF4E1a protein (human) (P06730 whole entry): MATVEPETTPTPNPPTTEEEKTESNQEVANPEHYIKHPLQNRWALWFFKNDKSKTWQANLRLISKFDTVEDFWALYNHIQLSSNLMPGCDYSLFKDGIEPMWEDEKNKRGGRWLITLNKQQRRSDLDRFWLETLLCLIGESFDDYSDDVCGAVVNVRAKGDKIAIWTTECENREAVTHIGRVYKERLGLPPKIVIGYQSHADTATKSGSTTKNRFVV

[2] = target: human 4E-T(1-68) wild type, monomer SH (both cysteines reduced) (human) (UniProt Q9NRA8); experiment: SEC; non-reducing: monomer fractions incubated 24 h at 20 °C in TCEP-free 50 mM HEPES-KOH pH 7.2 with KCl, Enrich SEC70 column, 20 °C; dimers are held by intermolecular disulphide bonds
human eIF4E1a protein [3] = target: T1, human eIF4E1a protein (human, UniProt P06730 1-217); experiment: ITC; non-reducing: 50 mM HEPES-KOH pH 7.2, 100 mM KCl, no TCEP, 20 °C; 20 µM eIF4E1a in the cell titrated with 200 µM h4E-T(1-68) WT; one-site model; settings: both partners purified
T1 construct: human eukaryotic translation initiation factor 4E, isoform called eIF4E1a; Extinction coefficient used: 52,940 M^-1 cm^-1; also called heIF4E1a; eukaryotic initiation factor 4E
T1 sequence (P06730 whole entry, canonical isoform): as the sequence (P06730 whole entry) above

human eIF4E1a protein [4] = target: T1, human eIF4E1a protein; experiment: differential scanning fluorimetry (thermal shift); non-reducing: 50 mM HEPES-KOH pH 7.2, 100 mM KCl, no TCEP; 5 µM eIF4E1a with 0-50 µM h4E-T(1-68) variant incubated without TCEP (up to 48 h, 4 or 20 °C), or SEC-purified dimers at 1:1; SYPRO Orange; shift of the Tm of eIF4E1a; settings: both partners purified
human eIF4E1a protein [5] = target: T1, human eIF4E1a protein; experiment: as above; settings: both partners purified; remark: listed apart in the source
human eIF4E1a protein [6] = target: T2, human eIF4E1a protein (human, UniProt P06730 1-217); experiment: ITC; eIF4E1a in the cell, titrated with a ten-fold concentrated h4E-T(1-68) variant (for WT: 20 uM eIF4E1a, 200 uM h4E-T); 20 °C; 50 mM HEPES-KOH pH 7.2, 100 mM KCl, without TCEP (non-reducing); one-site model; settings: both partners purified
T2 construct: eukaryotic translation initiation factor 4E, isoform 1a (eIF4E1a), human; Extinction coefficient used: 52,940 M^-1 cm^-1; also called heIF4E1a; eukaryotic initiation factor 4E
T2 sequence (P06730 whole entry, canonical isoform): as the sequence (P06730 whole entry) above

human eIF4E1a protein [7] = target: T1, human eIF4E1a protein; experiment: differential scanning fluorimetry (thermal shift); reducing: 50 mM HEPES-KOH pH 7.2, 100 mM KCl, 1 mM TCEP; 5 µM eIF4E1a with 0-50 µM h4E-T(1-68) variant; SYPRO Orange; shift of the Tm of eIF4E1a; settings: both partners purified
human eIF4E1a protein [8] = target: T1, human eIF4E1a protein; experiment: as above; settings: both partners purified; remark: listed apart in the source
human eIF4E1a protein [9] = target: T1, human eIF4E1a protein; experiment: ITC; reducing: 50 mM HEPES-KOH pH 7.2, 100 mM KCl, 1 mM TCEP, 20 °C; 5 or 10 µM eIF4E1a in the cell titrated with ten-fold concentrated h4E-T(1-68) variant; one-site model; settings: both partners purified
human eIF4E1a protein [10] = target: T2, human eIF4E1a protein; experiment: ITC; eIF4E1a (5 or 10 uM) in the cell, titrated with a ten-fold concentrated h4E-T(1-68) variant; 20 °C; 50 mM HEPES-KOH pH 7.2, 100 mM KCl, with 1 mM TCEP (reducing); one-site model; settings: both partners purified
[11] = target: the molecule itself; experiment: SEC; non-reducing: monomer fractions incubated 24 h at 20 °C in TCEP-free 50 mM HEPES-KOH pH 7.2 with KCl, Enrich SEC70 column, 20 °C; dimers are held by intermolecular disulphide bonds

fold lower ΔTm than the corresponding monomer [1]: 2 fold
ΔTm lower than that of the monomer-dimer mixture [1]: 2.5 °C
ΔΔTm against the monomer SS of WT h4E-T(1-68), 1:1 mixture [1]: 5.5 °C
Molecule: dimeric form of human 4E-T(1-68) C26A (intermolecular disulphide bond) (from UniProt Q9NRA8 1-68) (complex)

fold lower ΔTm than the corresponding monomer [1]: 2 fold
ΔTm lower than that of the monomer-dimer mixture [1]: 2.5 °C
ΔΔTm against the monomer SS of WT h4E-T(1-68), 1:1 mixture [1]: 7 °C
Molecule: dimeric form of human 4E-T(1-68) C50A (intermolecular disulphide bond) (from UniProt Q9NRA8 1-68) (complex)

percent in the dimeric form [2]: 10%
stoichiometry N [2]: 2
Molecule: human 4E-T(1-68) wild type, monomer SH (both cysteines reduced) (from UniProt Q9NRA8 1-68) (domain or fragment)

Kd (human eIF4E1a protein [3]): 800 ± 96 nM
B1: human 4E-T(1-68) wild type with the intramolecular disulphide bond Cys26-Cys50 (monomer SS) (domain or fragment, UniProt Q9NRA8 1-68, looked up)
chain: MDRRSMGETESGDAFLDLKKPPASKCPHRYTKEELLDIKELPHSKQRPSCLSEKYDSDGVWDPEKWHA
modifications: disulfide 26-50
notes: human 4E-Transporter (4E-T), N-terminal fragment, residues 1-68; Same construct as m2, oxidised; The samples without TCEP may still hold some monomer SH and a small fraction of dimer; also called h4E-T(1-68) WT under non-reducing conditions; disulphide loop form
Tm of eIF4E in the 1:1 mixture (melting peak after 3 h at 20 °C without TCEP) (human eIF4E1a protein [4]): 41.5 ± 0.5 °C
ΔTm of eIF4E at eIF4E:h4E-T(1-68) 1:1 (human eIF4E1a protein [5]): 1 ± 0.5 °C
ΔTm of eIF4E at eIF4E:h4E-T(1-68) 1:10 (human eIF4E1a protein [5]): 9.5 ± 0.5 °C

Ka (human eIF4E1a protein [6]): 1.25e+06 ± 150000 M⁻¹
B2: human 4E-T(1-68) wild type under non-reducing conditions (monomer SS, intramolecular disulphide bond) (domain or fragment, UniProt Q9NRA8 1-68, looked up)
chain: B1 chain
modifications: disulfide 26-50
notes: 4E-Transporter (4E-T), human, residues 1-68; Same construct as Wm2, in TCEP-free buffer; also called h4E-T(1-68) WT without TCEP; disulphide loop form

Kd (human eIF4E1a protein [9]): 2.7 ± 0.5 nM
B3: human 4E-T(1-68) wild type, monomer SH (both cysteines reduced) (domain or fragment, UniProt Q9NRA8 1-68, looked up)
chain: B1 chain
notes: pET28a construct, His6-tag cleavable by thrombin; also called h4E-T(1-68) WT; h4ET(1-68)
Tm of eIF4E in the 1:1 mixture (zero time) (human eIF4E1a protein [7]): 52.5 ± 0.5 °C
ΔTm of eIF4E at eIF4E:h4E-T(1-68) 1:1 (human eIF4E1a protein [8]): 12 ± 0.5 °C
ΔTm of eIF4E at eIF4E:h4E-T(1-68) 1:10 (human eIF4E1a protein [8]): 15.5 ± 0.5 °C
Tm of eIF4E in the 1:1 mixture (melting peak after 3 h at 20 °C without TCEP) (human eIF4E1a protein [4]): 51.5 ± 0.5 °C

Ka (human eIF4E1a protein [10]): 3.73e+08 ± 6.8e+07 M⁻¹
B4: human 4E-T(1-68) wild type, reduced (monomer SH) (domain or fragment, UniProt Q9NRA8 1-68, looked up)
chain: B1 chain
notes: 4E-Transporter (4E-T), human, residues 1-68; The His6-tag is cleavable by thrombin, but no cleavage is described; Kept in 1 mM TCEP, with both cysteines reduced; also called h4E-T(1-68) WT; h4ET(1-68)

Ka (human eIF4E1a protein [10]): 6.64e+08 ± 8.4e+07 M⁻¹
Ka (human eIF4E1a protein [6]): ~1e+08 M⁻¹
B5: human 4E-T(1-68) C26A (domain or fragment, UniProt Q9NRA8 1-68, looked up)
chain: B1 chain with C26A
notes: 4E-Transporter (4E-T), human, residues 1-68, with C26A; also called h4E-T(1-68)C26A; C26A mutant

B6: human 4E-T(1-68) C50A (domain or fragment, UniProt Q9NRA8 1-68, looked up)
chain: B1 chain with C50A
notes: human 4E-Transporter (4E-T), N-terminal fragment, residues 1-68; Without TCEP the samples are a mixture of monomer and disulphide-linked dimer; also called C50A mutant
ΔTm of eIF4E at eIF4E:h4E-T(1-68) 1:1 (human eIF4E1a protein [7]): 12 ± 0.5 °C
ΔTm of eIF4E at eIF4E:h4E-T(1-68) 1:1 (human eIF4E1a protein [8]): 11.5 ± 0.5 °C
ΔTm of eIF4E at eIF4E:h4E-T(1-68) 1:10 (human eIF4E1a protein [8]): 15.5 ± 0.5 °C
stoichiometry N [11]: 2
ΔTm of eIF4E at eIF4E:h4E-T(1-68) 1:1 (human eIF4E1a protein [5]): 10.5 ± 0.5 °C
ΔTm of eIF4E at eIF4E:h4E-T(1-68) 1:10 (human eIF4E1a protein [5]): 14.5 ± 0.5 °C

Kd (human eIF4E1a protein [9]): 1.5 ± 0.5 nM
B7: human 4E-T(1-68) C26A (domain or fragment, UniProt Q9NRA8 1-68, looked up)
chain: B1 chain with C26A
notes: human 4E-Transporter (4E-T), N-terminal fragment, residues 1-68; Without TCEP the samples are a mixture of monomer and disulphide-linked dimer; also called C26A mutant; C26 mutant
ΔTm of eIF4E at eIF4E:h4E-T(1-68) 1:1 (human eIF4E1a protein [8]): 12 ± 0.5 °C
ΔTm of eIF4E at eIF4E:h4E-T(1-68) 1:10 (human eIF4E1a protein [8]): 15.5 ± 0.5 °C
stoichiometry N [11]: 2
ΔTm of eIF4E at eIF4E:h4E-T(1-68) 1:1 (human eIF4E1a protein [5]): 9 ± 0.5 °C
ΔTm of eIF4E at eIF4E:h4E-T(1-68) 1:10 (human eIF4E1a protein [5]): 12.5 ± 0.5 °C

Ka (human eIF4E1a protein [6]): 3.27e+08 ± 2.2e+07 M⁻¹
B8: human 4E-T(1-68) C26AC50A (domain or fragment, UniProt Q9NRA8 1-68, looked up)
chain: B1 chain with C26A, C50A
notes: 4E-Transporter (4E-T), human, residues 1-68, with C26A and C50A; This mutant cannot form any disulphide bond; also called h4E-T(1-68)C26AC50A; double cysteine mutant

Kd (human eIF4E1a protein [9]): 3.1 ± 0.2 nM
B9: human 4E-T(1-68) C26AC50A (domain or fragment, UniProt Q9NRA8 1-68, looked up)
chain: B1 chain with C26A, C50A
notes: human 4E-Transporter (4E-T), N-terminal fragment, residues 1-68; also called double cysteine mutant
ΔTm of eIF4E at eIF4E:h4E-T(1-68) 1:1 (human eIF4E1a protein [5]): 10.5 ± 0.5 °C
ΔTm of eIF4E at eIF4E:h4E-T(1-68) 1:10 (human eIF4E1a protein [5]): 14.5 ± 0.5 °C

From PMC10618305, “An intramolecular disulphide bond in human 4E-T affects its binding to eIF4E1a protein” (European Biophysics Journal, 2023)
